Data reported in patent US20070167369A1, “Novel use of isolated polypeptide comprising four FAS-1 domains, EM1 domain and RGD motif” (KYUNGPOOK NATIONAL UNIVERSITY INDUSTRY-ACADEMIC COOPERATION …, priority 2004, published 2007).

Assays:
Assay type in all cases: cell-based, human
HUVECs [1] = assay: Endothelial tube formation assay on Matrigel (Examples 9-1 and 11); settings: Example 11; controls BSA or Nus protein
Method: First, 100 μl of Matrigel (Chemicon, International Inc, Temecula, Calif.) was added to each well of a 96-well plate and allowed to polymerize. HUVECs were suspended in medium at a density of 3×10^5 cells/ml, and 0.1 ml of the cell suspension was added to each well of the plate coated with Matrigel. At this time, 5 μM or 10 μM of the fas-1 domain (βig-h3 D-IV) prepared in Example 1 above was added together. A control was either treated with BSA or had no treatment. Thereafter, the cells were incubated at 37° C. for 16-18 hours. The cells were photographed, and endothelial tubes were counted and averaged.
For this purpose, the second fas-1 domain of βig-h3 (βig-h3 D-II) was prepared in the same manner as in Example 1-1 above. Since each domain of stabilin-II is insoluble, it was prepared in the form of soluble protein by cloning into the BamHI/XhoI sites of a Nus-conjugated pET43.1 vector (Novagen, USA). The prepared recombinant proteins were named “Nus-fas3” and “Nus-fas7”, respectively. A control to the second fas-1 domain of βig-h3 was treated with BSA, and a control to the fas-1 domain of stabilin-II was treated with a Nus protein. Thereafter, an endothelial tube formation assay was performed in the same manner as in Example 9-1.

HUVEC = assay: Adhesion of endothelial cells to vitronectin (Example 13-1)
Method: Flat-bottomed 96-well ELISA plates (Costar, Corning, Inc., NY) were incubated overnight at 4° C. with 5 μg/ml of vitronectin (Promega, Madison, Wis.) and blocked for 1 hour at room temperature with PBS containing 2% bovine serum albumin (BSA).
Primary human umbilical vein endothelial cells (HUVEC) were cultured at 37° C. in 5% CO2 in M199 medium supplemented with 20% fetal bovine serum. For all the experiments, HUVECs were used at passage 4 or less. HUVEC cells were suspended in medium at a density of 3×10^5 cells/ml, and 0.1 ml of the cell suspension was pre-incubated with or without the indicated concentration of the truncated βig-h3, the fas-1 domain and Regenin for 40 min at 37° C., then added to each well of the coated. After incubation for 5 to 10 minutes at 37° C., unattached cells were removed by rinsing with PBS. Attached cells were then incubated for 1 hour at 37° C. in 50 mM citrated buffer (pH 5.0) containing 3.75 mM p-nitrophenyl-N-acetyl-Dglycosamide and 0.25% Triton X-100. Enzyme activity was blocked by adding 50 mM glycine buffer (pH 10.4) containing 5 mM EDTA, and the absorbance was measured at 405 nm in a Bio-Rad model 550 microplate reader.

HUVECs [2] = assay: Migration of endothelial cells to vitronectin, transwell (Example 13-2)
Method: Cell migration assays were done in transwell plates (8 μm pore size, Costar, Cambridge, Mass.). The undersurface of the membrane was coated with 5 μg/ml of vitronectin at 4° C. and blocked for 1 hour at room temperature with PBS containing 2% BSA. HUVECs were suspended in medium at a density of 3×10^5 cells/ml, and 0.1 ml of the cell suspension was pre-incubated with or without the indicated concentration of the truncated βig-h3, the fas-1 domain and Regenin for 40 min at 37° C., then added to the upper compartment of the filter. Cells were allowed to migrate for 4 to 6 hours at 37° C. The filters were fixed with 8% glutaraldehyde and stained with crystal violet, and non-migrating cells on the upper surface of the filter were removed by wiping with a cotton swab. The extent of cell migration was determined by light microscopy, and within each well, counting was done in nine randomly selected microscopic high power fields (x200).

HUVECs [3] = assay: Endothelial tube formation in Matrigel (Example 14)
Method: Matrigel (Chemicon, International Inc, Temecula, Calif.) was added (100 μl) into each well of a 96-well plate and polymerized for 30 minutes at 37° C. HUVECs were suspended in medium at a density of 3×10^5 cells/ml, and 0.1 ml of the cell suspension was pre-incubated with or without the indicated concentration of the truncated βig-h3, the fas-1 domain and Regenin for 40 min at 37° C., then seeded on the surface of the Matrigel. Cells were incubated for 6 to 10 hours at 37° C. The cells were then photographed, and branch points from 4 high-power fields (x200) were counted and averaged.

Molecule	inhibition of endothelial tube formation by various fas-1 domains (HUVECs [1])	inhibition of adhesion to vitronectin (HUVEC; 500 nM)	inhibition of adhesion to vitronectin (HUVEC; various concentrations, vitronectin 5 μg/ml)	IC50 (HUVECs [2]; read-out: half-inhibition of migration toward vitronectin observed at) [µM]	inhibition of migration to vitronectin (HUVECs [2]; various concentrations, 4 to 6 hours)	70%-inhibition of tube formation observed at (HUVECs [3]; concentration giving 70% inhibition) [µM]	inhibition of tube formation (HUVECs [3]; various concentrations, 6 to 10 hours)
βig-h3 D-II: recombinant protein containing the second fas-1 domain of human βig-h3 (SEQ ID NO: 62) (protein, listed as Homo sapiens) NIQQIIEIEDTFETLRAAVAASGLNTMLEGNGQYTLLAPTNEAFEKIPSETLNRILGDPEALRDLLNNHILKSAMCAEAIVAGLSVETLEGTTLEVGCSGDMLTINGKAIISNKDILATNGVIHYIDELLI	completely inhibited						
Regenin: size control of truncated βig-h3: protein that expresses four copies of the fourth fas-1 domain (protein) MGTVMDVLKGDNRFSMLVAAIQSAGLTETLNREGVYTVFAPTNEAFRALPPRERSRLLGDAKELANILKYHIGDEILVSGGIGALVRLKSLQGDKLEVSLKNNVVSVNKEPVAEPDIMATNGVVHVITNVLMGTVMDVLKGDNRFSMLVAAIQSAGLTETLNREGVYTVFAPTNEAFRALPPRERSRLLGDAKELANILKYHIGDEILVSGGIGALVRLKSLQGDKLEVSLKNNVVSVNKEPVAEPDIMATNGVVHVITNVLMGTVMDVLKGDNRFSMLVAAIQSAGLTETLNREGVYTVFAPTNEAFRALPPRERSRLLGDAKELANILKYHIGDEILVSGGIGALVRLKSLQGDKLEVSLKNNVVSVNKEPVAEPDIMATNGVVHVITNVLMGTVMDVLKGDNRFSMLVAAIQSAGLTETLNREGVYTVFAPTNEAFRALPPRERSRLLGDAKELANILKYHIGDEILVSGGIGALVRLKSLQGDKLEVSLKNNVVSVNKEPVAEPDIMATNGVVHVITNVL		ineffective	dose-dependent inhibition	5	dose-dependent inhibition	5	dose-dependent inhibition
